According to article PMC5021521, “Coordinated recruitment of Spir actin nucleators and myosin V motors to Rab11 vesicle membranes” (eLife, 2016):

Key:
GST-Rab11a-Q70L = test: GST-pulldown from HEK293 lysates; format: binding; conditions: N = 2; for pulldown by GST-Rab11a-Q70L in words, with Q1753R mutant MyoVa: HEK293 lysates with GFP-MyoVa-Q1753R in place of GFP-MyoVa-FL
Protocol: HEK293 cells were co-transfected with expression vectors encoding Myc-Spir-2-FL, mStrawberry-FMN2-FH2-FSI, eGFP-MyoVa-D-FL and eGFP-MyoVa-D-Q1753R, respectively. 24 hr post transfection, cells were lysed in lysis buffer (25 mM Tris-HCl pH 7.4, 150 mM NaCl, 5 mM MgCl2, 10% (v/v) glycerol, 0.1% (v/v) Nonidet P-40, 1 mM PMSF, protease inhibitor cocktail) and centrifuged at 20,000 x g, 4°C, 20 min to remove insoluble debris. For GST-pulldown assays 65 µg GST-Rab11a-Q70L protein (25 µg GST control) was coupled to GSH-Sepharose 4B beads (1:1 suspension) for 1 hr, 4°C on a rotating wheel. Beads were washed twice with pulldown buffer (25 mM Tris-HCl pH 7.4, 150 mM NaCl, 5 mM MgCl2, 10% (v/v) glycerol, 0.1% (v/v) Nonidet P-40) and subsequently incubated with the cell lysates for 2 hr at 4°C on a rotating wheel. Beads were washed four times with pulldown buffer and bound proteins were eluted with 1x Laemmli buffer and denatured at 95°C for 10 min, then were analyzed by immunoblotting.

HeLa cells = test: Subcellular localization by fluorescence microscopy; format: cell-based
Protocol: (§1) HeLa cells were seeded on microscope cover glasses and transfected with Myc-epitope-tagged Spir-2 proteins and fluorescently-tagged MyoV and Rab11 proteins as described above. Cells were fixed with paraformaldehyde (3.7% in 1x PBS) for 20 min at 4°C and subsequently permeabilized using 0.2% Triton X-100 (in 1x PBS) for 3.5 min, room temperature. Cells were incubated with anti-c-Myc antibody (9E10, mouse monoclonal, 2 µg/ml, Santa Cruz Biotechnology; RRID: AB_627268) for 1 hr at room temperature and conjugated anti-mouse secondary antibodies (Cy5; from donkey, 3.25 µg/ml, Dianova (RRID: AB_2340820) and TRITC; from donkey, 3.125 µg/ml, Dianova (RRID: AB_2340767)) for 1 hr at room temperature avoiding exposure to light. Finally, cells were mounted on microscope slides with Mowiol and analyzed with a Leica AF6000LX fluorescence microscope, equipped with a Leica HCX PL APO 63x/1.3 GLYC objective and a Leica DFC350 FX digital camera (1392 × 1040 pixels, 6.45 × 6.45 µm pixel size). 3D stacks were recorded and processed with the Leica deconvolution software module. In case of the MyoVa autoregulation/activation experiments, we quantified the MyoVa expression levels. […] In order to clearly distinguish between vesicular and cytoplasmic MyoVa localization, we imaged either high or low expressing cells and determined the sum of pixel gray values per cell as a measure for the MyoVa expression levels. Based on that, we only used cells for the autoregulation analysis having a sum of pixel gray values less than 20 × 10^6 for the expression of GFP-MyoVa-D-FL. Images were recorded using the Leica LASX software and further processed with Adobe Photoshop and subsequently assembled with Adobe Illustrator.

mStrawberry-Rab11a = test: Colocalization with Rab11 in HeLa cells, Pearson's correlation coefficient; format: cell-based, Mus musculus
Protocol: as §1
The extent of colocalization of Rab11, Spir-2 and MyoVa was analyzed using the ImageJ (V2.0.0) plug-in Coloc 2. Here, the colocalization rate is indicated by the Pearson’s Correlation Coefficient (PCC) as a statistical measure to unravel a linear correlation between the intensity of different fluorescent signals. […] To take the noise of each image into account and to gain an objective evaluation of PCC significance, a Costes significance test was performed. Therefore, the pixels in one image were scrambled randomly and the correlation with the other (unscrambled) image was measured. […] Statistical data analysis was performed using SPSS 22 (IBM, Armonk, NY, USA).

GFP-MyoVb-GTD = test: Co-immunoprecipitation from HEK293 cells; format: binding, Homo sapiens; conditions: anti-Myc co-IP, HEK293, immunoblot
Protocol: HEK293 cells were transfected with expression vectors encoding Myc-tagged Spir proteins and GFP-tagged myosin Va and myosin Vb fragments. 48 hr post transfection, cells were lysed in lysis buffer (25 mM Tris-HCl pH 7.4, 150 mM NaCl, 5 mM MgCl2, 10% (v/v) glycerol, 0.1% (v/v) Nonidet P-40, 1 mM Phenylmethylsulfonylfluorid (PMSF; Sigma-Aldrich), protease inhibitor cocktail (complete mini, EDTA-free; Roche, Penzberg, Germany)) and centrifuged at 20,000 x g, 4°C, 20 min to remove insoluble debris. The clarified supernatant was incubated with 4 µg anti-c-Myc antibody (9E10, mouse monoclonal; Santa Cruz Biotechnology; RRID: AB_627268) for 1 hr on ice. Subsequently, 40 µl Protein G-Agarose beads (1:1 suspension; Roche) were added and incubated for 2 hr at 4°C on a rotating wheel. Beads were washed with pulldown buffer (25 mM Tris-HCl pH 7.4, 150 mM NaCl, 5 mM MgCl2, 10% (v/v) glycerol, 0.1% (v/v) Nonidet P-40). Bound proteins were eluted with 1x Laemmli buffer and denatured for 10 min at 95°C, then analyzed by immunoblotting.

With “GFP-MyoVa-Q1753R: eGFP-tagged full-length MyoVa with Q1753R mutation, which disrupts interaction with Rab11” as the molecule, how does the “pulldown by GST-Rab11a-Q70L in words, with Q1753R mutant MyoVa” value (GST-Rab11a-Q70L) read?
The value was “but not the GFP-MyoVa-Q1753R mutant”.

Which “pulldown by GST-Rab11a-Q70L in words” value (GST-Rab11a-Q70L; HEK293 lysates over-expressing Myc-Spir-2, Straw-FMN2-FH2-FSI and GFP-MyoVa-FL) does the source give for “Straw-FMN2-FH2-FSI: mStrawberry-tagged C-terminal formin-2, aa 1135 - 1578” here?
The value was “able to pull down”.

And the “pulldown by GST-Rab11a-Q70L in words, with Q1753R mutant MyoVa” value (GST-Rab11a-Q70L)?
Its value is “Only faint”.

B1: Myc-Spir-2-KIND-WH2: Myc-hs-Spir2-KIND-WH2 aa 2 - 410 (protein)
chain: ARAGSCGGAAAGAGRPEPWELSLEEVLKAYEQPLNEEQAWAVCFQGCRGLRGSPGRRLRDTGDLLLRGDGSVGAREPEAAEPATMVVPLASSEAQTVQSLGFAIYRALDWGLDESEERELSPQLERLIDLMANNDSEDSGCGAADEGYGGPEEEEEAEGVPRSVRTFAQAMRLCAARLTDPRGAQAHYQAVCRALFVETLELRAFLARVREAKEMLQKLREDEPHLETPRAELDSLGHTDWARLWVQLMRELRRGVKLKKVQEQEFNPLPTEFQLTPFEMLMQDIRARNYKLRKVMVDGDIPPRVKKDAHELILDFIRSRPPLKQVSERRLRPLPPKQRSLHEKILEEIKQERRLRPVRGEGWAARGFGSLPCILNACSGDAKSTSCINLSVTDAGGSAQRPRPRVLLK
modifications: left off: Myc epitope, end not stated, kept
Which “subcellular localization in words” value (HeLa cells; co-expression of eGFP-MyoVa-FL and N-terminal Spir-2 fragment) does the source give for B1 here?
Its value is “both cytosolic”.

And the “subcellular localization in words” value (HeLa cells; single expression)?
Its value is “even cytoplasmic and nuclear localization”.

B2: Myc-Spir2-SB-FYVE: Myc-hs-Spir2-SB-FYVE aa 438 - 714, lacks the MyoV binding motif (protein)
chain: DRSFSEHDLAQLRSEVASGLQSATHPPGGTEPPRPRAGSAHVWRPGSRDQGTCPASVSDPSHPLLSNRGSSGDRPEASMTPDAKHLWLEFSHPVESLALTVEEVMDVRRVLVKAEMEKFLQNKELFSSLKKGKICCCCRAKFPLFSWPPSCLFCKRAVCTSCSIKMKMPSKKFGHIPVYTLGFESPQRVSAAKTAPIQRRDIFQSLQGPQWQSVEEAFPHIYSHGCVLKDVCSECTSFVADVVRSSRKSVDVLNTTPRRSRQTQSLYIPNTRTLDFK
modifications: left off: Myc epitope, end not stated, kept
B2 was tested. Which PCC (mStrawberry-Rab11a; GFP-MyoVa-CC-GTD + mStraw-Rab11 + Myc-Spir2-SB-FYVE (first block, r34), cell 1) did it give?
Its PCC is 0.63.

And the PCC (mStrawberry-Rab11a; GFP-MyoVa-CC-GTD + mStraw-Rab11 + Myc-Spir2-SB-FYVE (first block, r34), cell 2)?
Its PCC is 0.74.

And the PCC (mStrawberry-Rab11a; GFP-MyoVa-CC-GTD + mStraw-Rab11 + Myc-Spir2-SB-FYVE (first block, r34), cell 3)?
The PCC was 0.59.

What about the PCC (mStrawberry-Rab11a; GFP-MyoVa-CC-GTD + mStraw-Rab11 + Myc-Spir2-SB-FYVE (first block, r34), cell 4) of the same molecule?
The PCC was 0.23.

And the “Pearson's correlation coefficient (PCC), mean” value (mStrawberry-Rab11a; GFP-MyoVa-CC-GTD + mStraw-Rab11 + Myc-Spir2-SB-FYVE (first block, r34), mean of 4 cells)?
Its value is 0.5475.

What about the “colocalization with Rab11 in words” value (mStrawberry-Rab11a; co-expression of Spir-2-SB-FYVE, MyoVa-CC-GTD and Rab11a, HeLa cells) of the same molecule?
The value was “significant reduction”.

B3: 398 714: C-terminal Spir-2 deletion mutant (protein)
chain: GSAQRPRPRVLLKAPTLAEMEEMNTSEEEESPCGEVTLKRDRSFSEHDLAQLRSEVASGLQSATHPPGGTEPPRPRAGSAHVWRPGSRDQGTCPASVSDPSHPLLSNRGSSGDRPEASMTPDAKHLWLEFSHPVESLALTVEEVMDVRRVLVKAEMEKFLQNKELFSSLKKGKICCCCRAKFPLFSWPPSCLFCKRAVCTSCSIKMKMPSKKFGHIPVYTLGFESPQRVSAAKTAPIQRRDIFQSLQGPQWQSVEEAFPHIYSHGCVLKDVCSECTSFVADVVRSSRKSVDVLNTTPRRSRQTQSLYIPNTRTLDFK
modifications: left off: Myc epitope, end not stated, kept
notes: C-terminal Spir-2 deletion mutant
Which “co-precipitation / interaction with MyoVb-GTD in words” value (from here on “co-precipitation / interaction”) (GFP-MyoVb-GTD) does the source give for B3 here?
The value was “show myosin V co-precipitation”.

B4: 1 423: N-terminal Spir-2 deletion mutant (protein)
chain: ARAGSCGGAAAGAGRPEPWELSLEEVLKAYEQPLNEEQAWAVCFQGCRGLRGSPGRRLRDTGDLLLRGDGSVGAREPEAAEPATMVVPLASSEAQTVQSLGFAIYRALDWGLDESEERELSPQLERLIDLMANNDSEDSGCGAADEGYGGPEEEEEAEGVPRSVRTFAQAMRLCAARLTDPRGAQAHYQAVCRALFVETLELRAFLARVREAKEMLQKLREDEPHLETPRAELDSLGHTDWARLWVQLMRELRRGVKLKKVQEQEFNPLPTEFQLTPFEMLMQDIRARNYKLRKVMVDGDIPPRVKKDAHELILDFIRSRPPLKQVSERRLRPLPPKQRSLHEKILEEIKQERRLRPVRGEGWAARGFGSLPCILNACSGDAKSTSCINLSVTDAGGSAQRPRPRVLLKAPTLAEMEEMNTS
modifications: left off: Myc epitope, end not stated, kept
notes: N-terminal Spir-2 deletion mutant
For B4, which “co-precipitation / interaction” value (GFP-MyoVb-GTD) is on record?
The value was “show myosin V co-precipitation”.

B5: Spir-1: Myc-hs-Spir1 aa 2 - 757, full-length (protein)
chain: MANTVEADGSKDEGYEAADEGPEDEDGEKRSISAIRSYQDVMKICAAHLPTESEAPNHYQAVCRALFAETMELHTFLTKIKSAKENLKKIQEMEKGDESSTDLEDLKNADWARFWVQVMRDLRNGVKLKKVQQRQYNPLPIEYQLTPYEMLMDDIRCKRYTLRKVMVNGDVPPRLKKSAHEVILDFIRSRPPLNPVSARKLKPTPPRPRSLHERILEEIKAERKLRPVSPEEIRRSRLVRPLSMSHSFDLSDVTTPESPKNVGESSMVNGGLTSQTKENGLSAAQQGSAQRKRLLKAPTLAELDSSDSEEEKSLHKSTSSSSASPSLYEDPVLEAMCSRKKPPKFLPISSTPQPERRQPPQRRHSIEKETPTNVRQFLPPSRQSSRSLEEFCYPVECLALTVEEVMHIRQVLVKAELEKYQQYKDVYTALKKGKLCFCCRTRRFSFFTWSYTCQFCKRPVCSQCCKKMRLPSKPYSTLPIFSLGPSALQRGESCSRSEKPSTSHHRPLRSIARFSTKSRSVDKSDEELQFPKELMEDWSTMEVCVDCKKFISEIISSSRRSLVLANKRARLKRKTQSFYMSSAGPSEYCPSERTINEI
For B5, which “co-precipitation / interaction” value (GFP-MyoVb-GTD) is on record?
The value was “did interact with the GFP-MyoVb-GTD”.
